According to article PMC4108388, “The Structure of RdDddP from Roseobacter denitrificans Reveals That DMSP Lyases in the DddP-Family Are Metalloenzymes” (PLoS ONE, 2014):

Target: the molecule itself
Assay: crystal structure; RdDddP crystallised in 4-4.5 M sodium chloride, 0.1 M Bis-Tris pH 6.5; space group P6(3)22, one molecule per asymmetric unit, dimer formed with a chain related by crystallographic symmetry; 2.15 Å native dataset

B1: putative DddP DMSP lyase from Roseobacter denitrificans Och 114 (enzyme, UniProt Q166H0 1-447, looked up)
chain: MNRHFNATRKIDPSRGATLGDGSPNDMNRVEIGPTQLAFAEWHTARLDLPDLAAMRRFRHRRLTDHVVARGYAGLLMFDPLNIRYATDSTNMQLWNTHNPFRATLLCADGYMVMWDYKNSPFLSEFNPLVREQRAGADLFYFDRGDKVDVAADVFANEVRILLRDHAPGLRRLAVDKVMLHGLRALQAQGFEIMDGEEVTEKARSVKGPDEIRAMRCASHACEVAVRKMEDFARSKVGDGVTCENDIWAILHSENVRRGGEWIETRLLASGPRSNPWFQECGPRVCQRNEIISFDTDLVGAYGICTDISRSWWIGDQKPRADMIYAMQHGVEHIRTNMEMLKPGVMIPELSANTHVLDAKFQKQKYGCLMHGVGLCDEWPLVAYPDHAVAGAYDYPLEPGMTLCVEALISEEGGDFSIKLEDQVLITEDGYENLTKYPFDPALMGVE
notes: putative DMSP lyase DddP (RdDddP), Roseobacter denitrificans Och 114, YP_682809; 453 residues, 51 kDa; the gene was amplified with printed primers that run from the ATG start codon to the stop codon; residues 10-444 are described in the structure; Homodimer formed by crystallographic symmetry; A few vector residues probably remain at the N-terminus after thrombin cleavage (NheI cloning in pET28); …
  stoichiometry N: 2
